Reference: the RNAGym collection of RNA variant scans (doi:10.7554/elife.80360)

B1: Twister Ribozyme (parent)
chain: AACACUGCCAAUGCCGGUCCCAAGCCCGGAUAAAAGUGGAGGGGGCGG

Variants of: B1
Assay: self-cleavage, relative activity (ratio to wild type); higher = more cleavage; co-transcriptional

Row | Variant | self-cleavage
1 | C3G C26U | 0.137
2 | C3G C26A | 0.121
3 | A2U G29C | 0.195
4 | C3G C20U | 0.295
5 | C3G C20G | 0.0675
6 | C3G C27G | 0.0859
7 | C3G C27U | 0.327
8 | C3G A32G | 0.434
9 | C3A G42A | 0.0462
10 | C3A G42C | 0.0718
11 | C3A U6A | 0.0998
12 | C3A G13C | 0.0651
13 | C3G G41A | 0.209
14 | C3G G41C | 0.0954
15 | C3A U37A | 0.201
16 | C3A U37C | 0.193
17 | C3A G28C | 0.179
18 | C3A G39C | 0.0623
19 | C3G C9U | 0.191
20 | C3G A22U | 0.384
21 | C3A G38A | 0.268
22 | C3A G38U | 0.191
23 | C3U A4G | 0.183
24 | C3A C21G | 0.0514

Row | Variant | self-cleavage
25 | C3A C21U | 0.0858
26 | C3A A30U | 0.184
27 | C3A U12C | 0.425
28 | C3G U31G | 0.44
29 | C3G G24C | 0.0852
30 | C3A C27G | 0.0917
31 | A2U U31C | 0.652
32 | C3G C8U | 0.389
33 | C3G C8G | 0.153
34 | C3A A10U | 0.0843
35 | C3A A10G | 0.322
36 | C3G G45A | 0.479
37 | C3G G45C | 0.207
38 | C3A G36U | 0.0633
39 | C3A G36A | 0.0998
40 | C3A G36C | 0.0352
41 | C3A A4G | 0.102
42 | C3A G24A | 0.0635
43 | C3A G24U | 0.0787
44 | C3U A10G | 0.474
45 | C3U A10U | 0.584
46 | C3U A10C | 0.61
47 | C3G G48A | 0.405
48 | C3G G48U | 0.549

Row | Variant | self-cleavage
49 | C3G G48C | 0.65
50 | A2U G47C | 0.174
51 | A2U G47U | 0.23
52 | C3A G17A | 0.0964
53 | A2U G28C | 0.533
54 | C3A U31A | 0.163
55 | C3A U31G | 0.121
56 | C3A U31C | 0.224
57 | C3G A30U | 0.427
58 | C3G A30G | 0.239
59 | A2U G41A | 0.111
60 | A2U G41C | 0.175
61 | C3G G16A | 0.271
62 | C3G G16C | 0.123
63 | C3G G16U | 0.608
64 | C3G A11G | 0.503
65 | C3G A11C | 0.295
66 | A2U G36A | 0.158
67 | A2U G36U | 0.113
68 | C3G G7U | 0.057
69 | A2U U12C | 0.732
70 | C3G U12C | 0.447
71 | C3G U12G | 0.4
72 | C3G U12A | 0.658

Row | Variant | self-cleavage
73 | C3A G47C | 0.145
74 | C3A G45A | 0.233
75 | C3G U18C | 0.147
76 | C3A C14A | 0.15
77 | C3A C14U | 0.176
78 | A2U G44C | 0.439
79 | A2U G44A | 0.615
80 | A2U G44U | 0.429
81 | C3A C9G | 0.217
82 | C3A C9A | 0.155
83 | C3G A34G | 0.235
84 | C3G A34U | 0.203
85 | C3G A34C | 0.0918
86 | A2U G43C | 0.137
87 | A2U G43U | 0.139
88 | C3G C25G | 0.109
89 | C3G C25U | 0.317
90 | C3A G7A | 0.0709
91 | C3A G7U | 0.0571
92 | C3A G41U | 0.0613
93 | C3A G41A | 0.0897
94 | C3G A10C | 0.28
95 | C3G A10U | 0.648
96 | C3G A35C | 0.397

Row | Variant | self-cleavage
97 | C3A A35G | 0.222
98 | C3G G44C | 0.345
99 | C3G G44U | 0.425
100 | A2U U6C | 0.0754
101 | C3G G47A | 0.275
102 | C3G G47U | 0.361
103 | C3A C26G | 0.0639
104 | C3A C26A | 0.139
105 | C3A A11G | 0.185
106 | C3G A33C | 0.357
107 | C3G A33G | 0.483
108 | C3A A34C | 0.0676
109 | C3G G42U | 0.118
110 | C3G G42C | 0.128
111 | C3G G42A | 0.111
112 | C3A G43C | 0.0669
113 | C3A G43U | 0.0615
114 | C3A G48A | 0.277
115 | C3A G48U | 0.282
116 | C3A G29A | 0.232
117 | C3A G29U | 0.231
118 | C3A G44A | 0.221
119 | C3A C20U | 0.403
120 | A2U U37G | 0.214

Row | Variant | self-cleavage
121 | A2U U37C | 0.114
122 | C3A A33U | 0.203
123 | C3A A33C | 0.147
124 | C3A A22U | 0.127
125 | C3G A40G | 0.111
126 | C3G G29C | 0.236
127 | C3G G29U | 0.394
128 | A2U U18C | 0.147
129 | C3G C15A | 0.161
130 | C3G C15G | 0.133
131 | C3G C15U | 0.389
132 | C3A G16A | 0.109
133 | C3A G16C | 0.0608
134 | C3A C25U | 0.16
135 | A2U G39A | 0.12
136 | A2U G45C | 0.191
137 | A2U G45A | 0.514
138 | C3A C19U | 0.153
139 | C3A C19A | 0.0415
140 | C3U A22G | 0.0518
141 | C3U A22C | 0.549
142 | C3U A22U | 0.255
143 | C3A A40G | 0.0819
144 | C3A A40U | 0.0819

Row | Variant | self-cleavage
145 | C3G G17C | 0.0532
146 | C3G G17U | 0.0757
147 | C3A C8U | 0.122
148 | C3A C8G | 0.0742
149 | C3A C8A | 0.116
150 | C3G G28A | 0.239
151 | C3G G28U | 0.253
152 | C3G G28C | 0.167
153 | C3G G36U | 0.144
154 | C3G G36A | 0.124
155 | C3G C21A | 0.0645
156 | C3G | 0.541
157 | C3U | 0.48
158 | C3A | 0.228
159 | A2U G48U | 0.581
160 | C3G G13U | 0.0808
161 | C3G A23C | 0.137
162 | C3G A23U | 0.107
163 | C3G A23G | 0.106
164 | C3G C19U | 0.265
165 | C3G C19G | 0.107
166 | C3A A23U | 0.133
167 | C3A A23G | 0.0731
